The values that follow come from patent WO2013139956A1 (dated 2013).

Assay [1] deals with peptide … (SEQ ID NO:82), N-terminally biotinylated (human). Description: ELISA, biotin-peptide on neutravidin plate, antibody 1 ug/ml. On the technique in general: ELISA stands for enzyme-linked immunosorbent assay.
For assay [2], the target named is T1, peptide … (SEQ ID NO:75), N-terminally biotinylated (human).
T1 sequence (peptide, N-terminally biotinylated): EISQEVRADVFPSY
The description is as above.

The target of assay [3] is peptide … (SEQ ID NO:76), N-terminally biotinylated (human). The assay is described as above.
Assay [4] concerns the target peptide … (SEQ ID NO:80), N-terminally biotinylated (human). The description is as above.
Assay [5] has as its target peptide … (SEQ ID NO:79), N-terminally biotinylated (human). Described as above.
The target of assay [6] is peptide … (SEQ ID NO:78), N-terminally biotinylated (human). Described as above.
The target of assay [7] is peptide … (SEQ ID NO:83), N-terminally biotinylated (human). Described as above.
The target in assay [8] is peptide … (SEQ ID NO:84), N-terminally biotinylated (human). Described as above.
In assay [9] the target is T2, peptide … (SEQ ID NO:77), N-terminally biotinylated (human).
T2 sequence (peptide, N-terminally biotinylated): EISQEVAADVFPSY
Described as above.

Assay [10] has as its target peptide … (SEQ ID NO:81), N-terminally biotinylated (human). The assay is described as above.
Assay [11] has as its target T3, peptide … (SEQ ID NO:51), N-terminally biotinylated (human).
T3 sequence (peptide, N-terminally biotinylated): EISQEVRGDVFPSY
The description is as above.

Assay [12] deals with T4, peptide … (SEQ ID NO:74), N-terminally biotinylated (human).
T4 sequence (peptide, N-terminally biotinylated): EISQEVAGDVFPSY
Described as above.

Assay [13] addresses peptide … (SEQ ID NO:86), N-terminally biotinylated (human). The description is as above.
Assay [14] concerns the target peptide … (SEQ ID NO:85), N-terminally biotinylated (human). The description is as above.
The target in the next assay is T5, human lactadherin (human, UniProt Q08431 24-387).
T5 sequence (looked up): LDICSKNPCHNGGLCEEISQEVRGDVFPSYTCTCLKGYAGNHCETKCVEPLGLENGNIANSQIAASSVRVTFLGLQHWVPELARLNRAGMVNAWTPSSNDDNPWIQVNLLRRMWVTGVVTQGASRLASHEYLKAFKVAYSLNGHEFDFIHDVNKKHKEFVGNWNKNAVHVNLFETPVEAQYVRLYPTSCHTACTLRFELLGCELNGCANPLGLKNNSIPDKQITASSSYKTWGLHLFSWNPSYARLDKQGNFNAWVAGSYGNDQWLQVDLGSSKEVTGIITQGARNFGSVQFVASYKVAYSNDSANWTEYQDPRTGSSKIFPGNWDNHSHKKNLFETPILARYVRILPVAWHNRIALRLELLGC
As to the kind of experiment: cell-based or functional assay.

Assay [15] concerns the target T3, peptide … (SEQ ID NO:51), N-terminally biotinylated (human). Description: ELISA, biotin-peptide on neutravidin plate, antibody 1 ug/ml. The source holds these as a separate data set.
Assay [16] concerns the target T6, peptide EISQEVRADVFPSY (SEQ ID NO:75), N-terminally biotinylated (human).
T6 peptide: Biotin-EISQEVRADVFPSY
The assay is described as above.

The target in assay [17] is T7, peptide NGGLCEEISQEVRG (SEQ ID NO:81), N-terminally biotinylated (human).
T7 construct: Human lactadherin 14-mer with part of the RGD domain at the C-terminus
T7 peptide: Biotin-NGGLCEEISQEVRG
The description is as above.

In assay [18] the target is T8, peptide EISQEVAGAVFPSY (SEQ ID NO:79), N-terminally biotinylated (human).
T8 peptide: Biotin-EISQEVAGAVFPSY
The description is as above.

For assay [19], the target named is T9, peptide CHNGGLCEEISQEV (SEQ ID NO:83), N-terminally biotinylated (human, cysteine pairing not given here).
T9 peptide: Biotin-CHNGGLCEEISQEV
The assay is described as above.

For assay [20], the target named is T10, peptide VFPSYTCTCLKGYA (SEQ ID NO:86), N-terminally biotinylated (human, cysteine pairing not given here).
T10 peptide: Biotin-VFPSYTCTCLKGYA
Described as above.

For assay [21], the target named is T11, peptide EISQEVAGDVFPSY (SEQ ID NO:74), N-terminally biotinylated (human).
T11 peptide: Biotin-EISQEVAGDVFPSY
The description is as above.

Assay [22] concerns the target T12, peptide EISQEVRAAVFPSY (SEQ ID NO:78), N-terminally biotinylated (human).
T12 peptide: Biotin-EISQEVRAAVFPSY
Described as above.

For assay [23], the target named is T13, peptide HNGGLCEEISQEVR (SEQ ID NO:82), N-terminally biotinylated (human).
T13 construct: Human lactadherin 14-mer with part of the RGD domain at the C-terminus
T13 peptide: Biotin-HNGGLCEEISQEVR
The description is as above.

The target of assay [24] is T14, peptide EISQEVAAAVFPSY (SEQ ID NO:80), N-terminally biotinylated (human).
T14 peptide: Biotin-EISQEVAAAVFPSY
The assay is described as above.

Assay [25] addresses T15, peptide EISQEVAADVFPSY (SEQ ID NO:77), N-terminally biotinylated (human).
T15 peptide: Biotin-EISQEVAADVFPSY
The description is as above.

Assay [26] concerns the target T16, peptide DVFPSYTCTCLKGY (SEQ ID NO:85), N-terminally biotinylated (human, cysteine pairing not given here).
T16 construct: Human lactadherin 14-mer with part of the RGD domain at the N-terminus
T16 peptide: Biotin-DVFPSYTCTCLKGY
The assay is described as above.

Assay [27] has as its target T17, peptide GDVFPSYTCTCLKG (SEQ ID NO:84), N-terminally biotinylated (human, cysteine pairing not given here).
T17 construct: Human lactadherin 14-mer with part of the RGD domain at the N-terminus
T17 peptide: Biotin-GDVFPSYTCTCLKG
The assay is described as above.

Assay [28] has as its target T18, peptide EISQEVRGAVFPSY (SEQ ID NO:76), N-terminally biotinylated (human).
T18 peptide: Biotin-EISQEVRGAVFPSY
Described as above.

Read-outs that look alike come from different tables or passages of the source. Ends that are not written are not given here. * marks the point of attachment. Biotin = O=C1N[C@H]2[C@H](CS[C@H]2CCCCC(=O)*)N1

Take “rabbit polyclonal antibody preparation raised against amino acids 56-190 of murine MFG-E8 (Santa Cruz sc-33546)”: the absorbance 450 nm minus 540 nm in [1] is 0.24 absorbance; in assay [2] it was 0.22 absorbance; in assay [3], 0.24 absorbance; in assay [4], 0.31 absorbance; in assay [5], 0.28 absorbance; in assay [6], 0.28 absorbance. The absorbance 450 nm minus 540 nm in assay [7] was 0.24 absorbance; in assay [8] it was 0.29 absorbance; in [9], 0.24 absorbance; in [10] it was 0.27 absorbance; in assay [11] it was 0.28 absorbance; in [12], 0.24 absorbance. Also, the absorbance 450 nm minus 540 nm in assay [13] was determined as 0.34 absorbance; in [14], 0.41 absorbance.

B1: anti-lactadherin antibody 311A7 (antibody, IgG1, V domains shown)
VH: EFQLQQSGPELVKPGASVRISCKASGYSFTDYNMNWVKQSDGKTLEWIGVINPDYGTTNNNQRFRGKATLTLDLSSSTAYMQLNSLTSEDSAVYYCARGGDYGAGYALDYWGQGTSVTVSS
VL: QIVLTQSPAIMSASPGEKVTITCSASSSVSYMYWFQQKPGTSPKLWIYSTSNLASGVPARFSGSGSGTSYSLTISRMEAEDAATYYCQQRSSYPRTFGGGTKLEIKR
notes: also called murine 311A7; hybridoma 311A7
Turning to B1, the “IC50 (nM), inhibition of cell adhesion to human lactadherin” value with human lactadherin stood at 7.36 nM. In the assay with human lactadherin, the “decrease of SKOV-3 cell migration towards lactadherin, antibody at 5 ug/mL” value was > 80%. Also, in the assay with human lactadherin, the “inhibition of SKOV-3 cell adhesion to coated human lactadherin, antibody at 5 ug/mL” value is > 70%. The absorbance 450 nm minus 540 nm was 1.47 absorbance in assay [15]; 0.01 absorbance in [16]; 0.01 absorbance in [17]; 0.05 absorbance in [18]; 0.02 absorbance in assay [19]; 0.02 absorbance in [20]. The “absorbance 450 nm minus 540 nm” value in assay [21] came to 0.02 absorbance; in assay [22] it was 0.02 absorbance; in assay [23], 0.02 absorbance; in [24], 0.02 absorbance; in [25], 0.01 absorbance; in [26], 0.02 absorbance. For the same molecule, the “absorbance 450 nm minus 540 nm” value in [27] is 0.02 absorbance; in assay [28], 0.01 absorbance.
